Test results taken from patent publication US7935795 (EVEC, dated 2011).

Molecular target: T1, recombinant human granulocyte-macrophage colony stimulating factor (hGM-CSF) (human, UniProt P04141 18-144)
T1 construct: also called recombinant GM-CSF; recombinant hGM-CSF
Assay: BIAcore, antibody immobilised on sensor chip, recombinant hGM-CSF as analyte
Experimental: Affinity analysis was conducted on the anti-hGM-CSF antibody applying BIAcore® system (FIG. 4). In the method, the antibody (purified antibody) was immobilized to a sensor chip, and then an antigen (recombinant) was added to the surface of the immobilized antibody, so that the interaction between antibody and an antigen was measured. A purified antibody was applied to the antibody, and a recombinant hGM-CSF was applied to the antigen. A mouse anti-GM-CSF monoclonal antibody (commercially available) (R&D) was applied to a positive control, and a purified anti-human cytomegalovirus monoclonal antibody was applied to a negative control. After the analysis, it turned out that antigen-antibody interaction was not detected in the negative control. In the positive control, dissociation constant of 6.1×10^-9 M is shown as the affinity. The affinity of the anti-GM-CSF antibody obtained was 2.1×10^-10 M (FIG. 5).

T1 sequence (P04141 18-144 limits assumed): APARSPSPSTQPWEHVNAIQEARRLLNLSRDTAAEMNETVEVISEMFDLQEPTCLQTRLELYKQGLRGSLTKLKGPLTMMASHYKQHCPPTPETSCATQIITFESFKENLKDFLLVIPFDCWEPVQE

B1: anti-hGM-CSF human monoclonal antibody J158 4C (antibody, human IgG1, kappa, V domains shown)
VH: LVQLVQSEAEVKKPGASVRISCRTSGYIFPTFALHWVRQAPGQSLEWVGSINTASGKTKFSTKFQDRLTLSSNTSATTVYMDLSGLTLDDTALYYCARDRFQNIMATILDVWGQGTLVTVSS
VL: DIVLTQSPGTLSLSPGERVTVSCRASHRVSSNYLAWYQQRPGQSPRLLIFGASNRATGVPDRFSGSGSGTDFALTISRLEPDDFAVYYCQQYASSPVTFGGGTKLEIKR
notes: also called anti-hGM-CSF antibody; anti-GM-CSF antibody
Kd: 0.21 nM
